Reference: article PMC6211226, “Intracellular Signaling by the comRS System in Streptococcus mutans Genetic Competence” (mSphere, 2018)
{BodipyFLX} = Bodipy FL-X fluorophore label on the DNA probe

Key:
[1] = target: ComS (full-length, 17 residues), synthetic (Streptococcus mutans); assay: fluorescence polarisation; ComR titrated into 1 nM Bodipy FL-X-labelled PcomX stem-loop DNA probe with 10 µM XIP or ComS, 0.05 mg/ml salmon DNA, 1 mM EDTA, 37°C 20 min; together with competition by unlabeled DNA at 1.5 µM ComR; read-out is on the DNA probe, k1 and n of the ComR/peptide complex come from the fit of a two-step cooperative model
[2] = target: XIP (sigX-inducing peptide), synthetic (Streptococcus mutans); assay: as above
[3] = target: ComR;XIP (Streptococcus mutans UA159;Streptococcus mutans) (UniProt Q8DWI6); assay: fluorescence polarization; conditions: Previously described reaction buffer (ref 53; composition not given) + 1 mM EDTA, 0.05 mg/ml salmon DNA, 1 nM probe, 37 C, 20 min; ComR dialyzed into PBS pH …
ComR = assay: Fluorescence polarization competition assay with unlabeled DNA probes; type: binding; conditions: 1.5 µM ComR, 10 µM ComS or XIP, 1 nM labeled PcomX DNA; PcomS vs PcomX
Description: FIG 5 ComS and XIP interact with ComR to bind the comX promoter. A fluorescence polarization assay testing interaction of ComS and XIP peptides with ComR and the PcomX transcriptional activation site was performed. The DNA probe was labeled with a Bodipy FL-X fluorophore. (A) Titration of ComR into a solution containing 10 µM XIP (blue) or full-length ComS (green), labeled DNA probe (1 nM), and 0.05 mg ml^−^1 salmon DNA. The negative control (black) contained no ComS or XIP peptide. (B) Competition assay in which unlabeled promoter sequence DNA was titrated into a solution containing ComR (1.5 µM), fluorescent DNA probe (1 nM), and peptide (either ComS or XIP, 10 µM). Unlabeled PcomX DNA was used with XIP (blue) and ComS (green). An unlabeled PcomS probe was also tested for its ability to compete with the fluorescent PcomX probe in the presence of XIP (red) and ComS (gold). […]
Competing unlabeled probe assays were performed with 1.5 µM ComR in the same buffer containing 1 nM PcomX fluorescent DNA and 10 µM SHP (either ComS or XIP). […] Reaction mixtures were again incubated at 37°C for 20 min before polarization readings were taken. In all FP experiments, reading was performed three times on the same plate to estimate instrument error. […]

ComR;ComS [4] = target: T1, ComR;ComS (Streptococcus mutans …, UniProt Q8DWI6; 1-304;, |); assay: competition (fluorescence polarization); 1.5 uM ComR, 10 uM ComS, 1 nM labeled PcomX; affinity appears identical to PcomX; Previously described reaction buffer (ref 53; composition not given) + 1 mM EDTA, 0.05 mg/ml salmon DNA, 1 nM probe, 37 C, 20 min; ComR dialyzed into PBS pH 7.4; conditions: tags: His6 tag (pET-45b(+), N-terminal) cleaved with EKMax;; chain copies: 2;2; hairpin, 20 bp stem, CCCCC loop
ComR;ComS [5] = target: T1, ComR;ComS; assay: fluorescence polarization; 10 uM ComS; k2 of two-step model (k1 = 3.2 uM, n = 2.5), global fit with competition; not precisely determined, Text S3 gives k2 range 30-200 nM; Previously described reaction buffer (ref 53; composition not given) + 1 mM EDTA, 0.05 mg/ml salmon DNA, 1 nM probe, 37 C, 20 min; ComR dialyzed into PBS pH 7.4; conditions: tags: His6 tag (pET-45b(+), N-terminal) cleaved with EKMax;; chain copies: 2;2; label: 5' Bodipy FL-X; hairpin, 20 bp stem, CCCCC loop

Molecule: ComR (native, histidine tag cleaved) (receptor)
- Kd [1]: 3.2 µM
- n (order of multimerization of the ComR/peptide complex, two-step model) [1]: 2.5
- Kd [2]: 7.3 µM
- n (order of multimerization of the ComR/peptide complex, two-step model) [2]: 2.4

Molecule: ATGGGACATTTATGTCCTGTCCCCCACAGGACATAAATGTCCCAT [PcomX stem-loop probe]
- Kd [3]: 33 nM

Molecule: PcomX: self-annealing stem-loop DNA, 5′-ATGGGACATTTATGTCCTGTCCCCCACAGGACATAAATGTCCCAT-3′ (5′-Bodipy FL-X in labeled probe) (DNA, 5' {BodipyFLX}, backbone and methylation of C not given here)
- affinity of unlabeled probe for ComR by competition (ComR): appear to have identical levels of affinity for ComR

Molecule: ACGGGACATAAATGTCCTGTCCCCCACAGGACATTTATGTCCCGT (structured_DNA) [PcomS stem-loop, unlabeled]
- binding result (ComR;ComS [4]): binds

Molecule: ATGGGACATTTATGTCCTGTCCCCCACAGGACATAAATGTCCCAT (structured_DNA) [PcomX stem-loop probe]
- Kd (ComR;ComS [5]): 2.2 nM
